Results on four molecules are retold here after publication PMC11621127.

Read-outs that look alike come from different tables or passages of the source.

In assay [1] the target is JRCSF SOSIP (chimeric SOSIP Env trimer: gp120 from JRCSF.JB, gp41 from BG505 with MD39 substitutions) (HIV-1 strain JRCSF.JB | HIV-1 strain BG505). Briefly: mass photometry; Fab-SOSIP complexes formed at room temperature in TBS overnight, 4 uM trimer, 1.05 molar excess of Fab to SOSIP protomer, not purified by SEC; diluted to 8 nM trimer and a further 10-fold (6535.3) or 4-fold (JRCSF) on the instrument; SOSIP alone as control. In general terms: In gel filtration, larger molecules generally elute earlier.

The target of assay [2] is 6535.3 SOSIP (chimeric SOSIP Env trimer: gp120 from 6535.3, gp41 from BG505 with MD39 substitutions) (HIV-1 strain 6535.3 | HIV-1 strain BG505). Described as above.
The target is the same in assay [3]. Briefly: cryo-EM structure; SOSIP complexed with Fab at room temperature overnight, about 1.3:1 molar excess Fab:SOSIP protomer; SEC (Superose 6 Increase) in TBS; ~1.1 mg/mL (JRCSF/Ab1456) or ~1.9 mg/mL (6535.3/Ab1271); no sCD4 or CD4 mimetic.
The target in assay [4] is JRCSF SOSIP (chimeric SOSIP Env trimer: gp120 from JRCSF.JB, gp41 from BG505 with MD39 substitutions) (HIV-1 strain JRCSF.JB | HIV-1 strain BG505). Described as above.
Assay [5] shares this target. Described as above. This is another data set of the same source.
The target is the same in assay [6]. The description is as above. This is another data set of the same source.

A word on the stoichiometry N: it is a count of units in the complex or per binding partner. As to “JRCSF SOSIP (chimeric SOSIP Env trimer: gp120 from JRCSF.JB, gp41 from BG505 with MD39 substitutions) (complex)”, in assay [1], the stoichiometry N turned out to be 3.

In assay [2], “6535.3 SOSIP (chimeric SOSIP Env trimer: gp120 from 6535.3, gp41 from BG505 with MD39 substitutions) (complex)” had a stoichiometry N of 3.

B1: Ab1271 Fab (Fab, V domains shown)
VH: QVQLVESGPGLVKPSETLSLTCAVSGDSISSTWWNWIRQPPGKGLEWIGRISGDGGNTDYSPSLKSRVTISTDTSKNQLSLRLTSVAAADTAVYFCAAPDCSGPDCSPGFDYWGPGVLVTVSS
VL: QPVLTQPPSVSGAPGQRVTISCTGSSSDIGRFYVQWYQQLPGTAPKLLIYENTKRPSGISDRFSGSQSGPSASLTITGLQSEDEADYYCQSYDSSMSAHVLFGGGTRLTVL
As for B1, the stoichiometry N (Fab per trimer) in assay [2] and in assay [3] was 1 each time.

B2: Ab1456 Fab (Fab, V domains shown)
VH: QVQLVESGAEVKRPGDSLKISCKTSGDVFTSTWITWVRQMPGKDLEWMASIYLDDSDTQYNPSFQGHVTISADKSINTIYLQLSSLKVSDTATYYCAKWGVDCSDSGCSSAFDSWGQGVLVTVSS
VL: SYELTQPPSVSGAPGQRVTISCTGGTSNIGNYYVQWYQQLPGTAPKLLIYENNKRPSGISDRFSGSQSGTSGSLTITTGLQSEDEADYFCQSYDDSLSAHVFGSGTKVTIL
Regarding B2, the figures for the stoichiometry N (Fab per trimer) in assay [4], in assay [5] and in assay [6] were 2, 3 and 1, respectively.
